Results from patent US20250049939A1, “NOVEL FLT3 ANTIBODIES AND ANTIBODY-DRUG-CONJUGATES BASED THEREON, THERAPEUTIC METHODS AND USES THEREOF IN COMBINATION WITH TYROSINE KINASE INHIBITORS” (TUBULIS GmbH, priority 2021, published 2025).

Columns and labels:
[1] = test system: ITD mutant human FLT3 (hFLT3ITD); assay: Cell surface binding to Ba/F3 hFLT3ITD, flow cytometry
Source text: (§1) FIG. 1: Evaluation of epitope specificity and internalization capability of anti-FLT3 monoclonal antibodies. (A) Affinity of seven anti-FLT3 monoclonal antibody (mab) clones to recombinant human FLT3 measured in enzyme-linked immunosorbent assay (ELISA) normalized to the binding of the antibodies to BSA control. […] (B) Schematic FLT3 receptor. Black arrows indicate common mutations and blue arrows indicate the three identified epitopes of seven anti-FLT3 antibodies analyzed in linear epitope mapping by PEPperPRINT. Figure was created with BioRender.com. (C) Binding and temperature induced internalization of anti-FLT3 antibodies in Ba/F3 cells expressing human wildtype FLT3. […] Remaining surface-bound antibody was detected in flow cytometry. […] MFI=mean fluorescence intensity. […] (D) Cell surface binding of 20D9 mab or control human IgG1 antibody to Ba/F3 cells stably expressing pMIY (Ba/F3-pMIY) empty vector (ev), human wildtype (hFLT3 wt) or ITD mutant human FLT3 (hFLT3ITD) was measured in flow cytometry. […] (E) Temperature induced internalization of 4B12 mab in MOLM-13 (FLT3 positive) cells after 30 min incubation at 37° C. compared to 4° C. and HL-60 (FLT3 negative) after 37° C. incubation assessed in immunofluorescence staining. […] (G) Cell surface binding of 20D9 mab or control hIgG1 antibody to Ba/F3-PMIY ev, hFLT3 wt or epitope mutant FLT3 (hFLT3/S50P/P54R) measured in flow cytometry. […]

hFLT3/S50P/P54R = molecular target: T1, hFLT3/S50P/P54R (Homo sapiens, UniProt P36888, P54R/S50P); assay: Cell surface binding to Ba/F3 epitope mutant FLT3, flow cytometry
T1 construct: expressed in transfected cells; host or cells: Ba/F3 cells, retrovirally transduced with MSCV-IRES-YFP (pMIY) vector
T1 sequence (P36888 27-993 S50P/P54R): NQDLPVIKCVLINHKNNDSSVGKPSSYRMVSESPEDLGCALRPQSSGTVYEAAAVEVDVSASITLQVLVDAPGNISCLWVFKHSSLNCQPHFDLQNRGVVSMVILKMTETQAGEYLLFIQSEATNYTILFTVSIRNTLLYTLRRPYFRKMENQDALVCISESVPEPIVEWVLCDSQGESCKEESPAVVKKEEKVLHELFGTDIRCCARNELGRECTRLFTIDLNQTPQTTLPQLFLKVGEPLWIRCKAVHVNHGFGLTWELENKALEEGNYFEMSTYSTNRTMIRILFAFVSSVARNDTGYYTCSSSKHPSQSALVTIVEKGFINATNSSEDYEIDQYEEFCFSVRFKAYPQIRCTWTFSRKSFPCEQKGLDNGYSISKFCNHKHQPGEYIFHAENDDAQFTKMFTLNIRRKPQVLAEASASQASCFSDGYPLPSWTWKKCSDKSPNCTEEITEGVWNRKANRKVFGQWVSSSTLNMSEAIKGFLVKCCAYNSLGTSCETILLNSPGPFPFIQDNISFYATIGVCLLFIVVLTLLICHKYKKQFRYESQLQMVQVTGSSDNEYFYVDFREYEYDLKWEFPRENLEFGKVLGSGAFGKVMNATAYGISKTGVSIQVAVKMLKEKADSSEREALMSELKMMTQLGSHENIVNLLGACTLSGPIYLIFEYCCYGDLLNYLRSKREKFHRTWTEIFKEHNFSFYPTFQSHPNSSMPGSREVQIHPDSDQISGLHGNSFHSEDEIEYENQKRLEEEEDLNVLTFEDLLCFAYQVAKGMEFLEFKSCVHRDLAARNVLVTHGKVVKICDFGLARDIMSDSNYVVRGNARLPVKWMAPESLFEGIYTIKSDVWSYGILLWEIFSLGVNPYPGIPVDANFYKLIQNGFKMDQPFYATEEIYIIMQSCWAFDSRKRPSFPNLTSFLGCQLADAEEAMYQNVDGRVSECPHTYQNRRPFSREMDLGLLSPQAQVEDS
Source text: as §1

[2] = test system: FLT3 mutants FLT3/NPOS, FLT3/D835Y, FLT3/D835V, FLT3/NPOS D835Y, FLT3/NPOS N676K, FLT3/NPOS F6911, FLT3/NPOS F691L; assay: Cell surface binding to Ba/F3 FLT3ITD and TKD mutants; set-up: species or system human
Protocol: For FLT3 expression analysis, cells were stained on ice with primary mouse anti-FLT3-AF647 antibodies for 30 min. For antibody binding studies, cells were stained on ice with chimeric (20D9) or humanized anti-FLT3 antibodies (in house) or IgG1 control with or without Leu234Ala/Leu235Ala (LALA)-mutation in the Fc region and secondary antibody goat F(ab′)2 Anti-Human IgG-AF647 (2042-31) purchased from Southern Biotech for 30 min, respectively. Binding and expression were subsequently measured at the flow cytometer (BD FACSCanto II) and the results were evaluated with FlowJo version 10.8.1.

[3] = test system: PDX AML cells with FLT3-ITD mutation; assay: Ex vivo treatment of patient derived xenograft (PDX) samples; type: cell-based, human

Binding to human FLT3 with epitope region mutated to murine variant (S50P/P54R) (hFLT3/S50P/P54R): not able to bind
B1: 20D9: chimeric (rat variable regions, human IgG1) anti-FLT3 monoclonal antibody; VH SEQ ID NO: 5, VL SEQ ID NO: 6 (antibody, V domains shown)
VH: DVMLVESGGGLVQPGRSLKLSCVASGFTFNNYWMTWIRQAPGKGLEWIASITKTGGGTYYPDSVKGRFTISRDNAKSTLYLQMNSLRSEDTATYYCTTLQQLGVMDAWGQGASVTVSSA
VL: DVQMTQSPSVLSASVGDRITLNCKASQNINKELNWYQQKLGEAPKLLIYNTNNLQTGIPSRFSGSGSGTDYTLTISSLQPEDVATYFCFQHKSWPLTFGSGTKLEIKR
modifications: Clone 20D9, heavy chain variable region without a signal seqeunce; Clone 20D9, light chain variable region without a signal seqeunce
Binding to Ba/F3 cell lines expressing FLT3-ITD [1]: specific binding
Binding to FLT3 with common mutations [2]: also binds to FLT3 with common mutations
Ex vivo sensitivity of PDX cells [3]: remained ineffective
